We go through one molecule from US20230048390A1 (Xencor, published 2023).

Assay [1] addresses T1, mouse CD20 (mouse, UniProt P19437 1-291, limits assumed).
T1 construct: Named only as mouse CD20
T1 sequence (looked up): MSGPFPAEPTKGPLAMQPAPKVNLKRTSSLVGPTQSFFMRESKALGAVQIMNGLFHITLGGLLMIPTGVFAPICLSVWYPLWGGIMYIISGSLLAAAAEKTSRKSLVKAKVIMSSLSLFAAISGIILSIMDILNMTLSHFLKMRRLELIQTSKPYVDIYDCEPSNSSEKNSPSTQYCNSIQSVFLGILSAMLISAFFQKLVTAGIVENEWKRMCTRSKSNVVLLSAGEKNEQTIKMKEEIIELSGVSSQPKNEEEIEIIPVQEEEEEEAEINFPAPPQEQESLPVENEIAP
Briefly: not described.

The target of assay [2] is T2, human CD20 (human, UniProt P11836 1-297).
T2 sequence (looked up): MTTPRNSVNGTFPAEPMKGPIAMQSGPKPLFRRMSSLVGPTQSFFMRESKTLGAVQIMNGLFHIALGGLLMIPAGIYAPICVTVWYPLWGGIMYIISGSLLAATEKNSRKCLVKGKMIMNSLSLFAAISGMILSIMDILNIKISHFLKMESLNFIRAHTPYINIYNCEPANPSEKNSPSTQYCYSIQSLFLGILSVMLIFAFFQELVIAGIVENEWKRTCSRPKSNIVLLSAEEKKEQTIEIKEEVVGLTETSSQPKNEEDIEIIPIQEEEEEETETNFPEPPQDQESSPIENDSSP
Briefly: cell-based or functional assay.

B1: XmAb®13676 (XENP13676 Anti-CD20 × Anti-CD3 Fab-scFv-Fc) (bispecific antibody)
heavy: QVQLVQSGAEVKKPGASVKVSCKASGYTFTSYNMHWVRQAPGQGLEWMGAIYPGNGDTSYNQKFQGRVTITADKSISTAYMELSSLRSEDTAVYYCARSTYYGGDWYFNVWGAGTLVTVSSASTKGPSVFPLAPSSKSTSGGTAALGCLVKDYFPEPVTVSWNSGALTSGVHTFPAVLQSSGLYSLSSVVTVPSSSLGTQTYICNVNHKPSDTKVDKKVEPKSCDKTHTCPPCPAPPVAGPSVFLFPPKPKDTLMISRTPEVTCVVVDVKHEDPEVKFNWYVDGVEVHNAKTKPREEEYNSTYRVVSVLTVLHQDWLNGKEYKCKVSNKALPAPIEKTISKAKGQPREPQVYTLPPSREEMTKNQVSLTCDVSGFYPSDIAVEWESDGQPENNYKTTPPVLDSDGSFFLYSKLTVDKSRWEQGDVFSCSVMHEALHNHYTQKSLSLSPGK
chain: not shown
light: QIVLTQSPSSLSASVGDRVTITCRASSSVSYIHWFQQKPGKSPKPLIYATSNLASGVPVRFSGSGSGTDYTLTISSLQPEDFATYYCQQWTSNPPTFGGGTKVEIKRTVAAPSVFIFPPSDEQLKSGTASVVCLLNNFYPREAKVQWKVDNALQSGNSQESVTEQDSKDSTYSLSSTLTLSKADYEKHKVYACEVTHQGLSSPVTKSFNRGEC
notes: The anti-CD20 Fv is derived from murine antibody C2B8; also called plamotamab
Regarding B1, the binding result in assay [1] is recorded as “no binding”. Besides, in assay [2], the “EC50 of Jeko-1 target cell killing (RTCC) in the presence of 3 µg/ml rituximab” value was determined as 0.051 µg/mL, the “EC50 of Jeko-1 target cell killing (RTCC) in the presence of 10 µg/ml rituximab” value was 0.093 µg/mL, the “EC50 of Jeko-1 target cell killing (RTCC) in the presence of 30 µg/ml rituximab” value was determined as 0.162 µg/mL and the “EC50 of Jeko-1 target cell killing (RTCC) in the presence of 100 µg/ml rituximab” value is 0.387 µg/mL. Moreover, in assay [2], the “EC50 of Jeko-1 target cell killing (RTCC), no rituximab” value amounted to 0.024 µg/mL and the “EC50 of RTCC against Ramos cells with purified T cells from six healthy donors” value was in the range of 0.0053 to 0.0143 µg/mL.
